Test results reported in US10570381B2, “STEP-derived peptide for brain injury treatment” (STC.UNM, priority 2010, dated 2020).

B1: TAT-STEP peptide: constitutively active STEP-derived peptide fused to HIV-1 TAT protein transduction domain, myc-tagged; exact mutation set not stated here (protein)
chain: MALYGRKKRRQRRRGEEKVEDDFLDLDAVPETPVFDCVMDIKPETDPASLTVKSMGLQERRGANVSLTLDMCEPGCNEEGFGYLVEPREESAHEYLLSASRVLRAEELHEKALDPFLLQAE
modifications: Mouse
B2: TAT-STEP peptide of SEQ ID. No. 11: cell-permeable TAT-STEP peptide given intravenously in MCAO; figure legends call the treatment TAT-STEP-myc (protein)
chain: MALYGRKKRRQRRRGEEKVEDDFLDLDAVPETPVFDCVMDIKPETDPASLTVKSMGLQERRGANVSLTLDMCEPGCNEEGFGYLVEPREESAHEYLLSASRVLRAEELHEKALDPFLLQAE
modifications: myc tag; Mouse

Experiments:
cultured neurons [1] = assay: cell culture model of glutamate toxicity (Hoechst DNA staining); format: cell-based; conditions: transduction prior to or immediately after glutamate (100 μM, 30 min); staining 24 hr later
From the text: Using a cell culture model of glutamate toxicity we first investigated the functional significance of STEP's activation following excitotoxic NMDA receptor stimulation. […] As described in Poddar et al., 2010, using a substrate-trapping mutant we established that p38 MAPK is a substrate of STEP and the KIM domain of STEP is involved in STEP-p38 interaction. NR2B-NMDAR mediated activation of STEP promotes cell survival by down-regulating p38 MAPK signaling pathway. However sustained NMDAR stimulation results in degradation of active STEP leading to secondary activation of p38 MAPK that triggers cell death pathways. Based on these findings we generated a constitutively active form of a STEP peptide that can bind irreversibly to p38 MAPK. It was rendered cell permeable by fusion to the protein transduction domain of the human immunodeficiency virus-type I, TAT.

striatum = assay: animal model of glutamate toxicity, stereotactic injection into the striatum; format: in vivo; conditions: injected stereotactically into the striatum prior to glutamate
cultured neurons [2] = assay: oxygen-glucose deprivation (OGD), in vitro model of cerebral ischemia; format: cell-based; conditions: pre-incubation with peptide; OGD 2 hr; viability tested 24 hr later
Description: In subsequent experiments we used oxygen-glucose deprivation (OGD) as an in vitro model of cerebral ischemia to evaluate the role of TAT-STEP peptide in neuroprotection following an ischemic insult. Cultured neurons were submerged in glucose free buffer in a hypoxic chamber (oxygen-glucose deprivation or OGD) for 2 hr in the presence or absence of the peptide and cell viability was tested by Hoechsy DNA staining 24 hr later.

male Wistar rats = assay: middle cerebral artery occlusion (MCAO) acute ischemic stroke model; format: in vivo, rat; conditions: intravenous, reperfusion 24 hr, vs saline, p<0.01
Description: FIG. 13 is a quantitative analysis of the infarct volume. Infarct volumes are expressed as a percentage of the contralateral (control) hemisphere and the data are mean +/− SEM (p<0.01).
FIG. 15 is a quantitative analysis of the infarct volume. Infarct volumes are expressed as a percentage of the contralateral (control) hemisphere and the data are mean +/− SEM (p<0.01).
Using an animal model of cerebral ischemia (middle cerebral artery occlusion for 90 min to generate embolic stroke followed by reperfusion for 24 hr), we evaluated whether degradation of active STEP contributes to neuronal cell death and subsequent brain damage and if the modified STEP peptide can mitigate ischemic brain damage. At first we examined the temporal profile of STEP's activation and subsequent degradation following cerebral ischemia and reperfusion and also evaluated its correlation with p38 MAPK activation. The findings show a rapid but transient increase in phosphorylation of p38 MAPK within 15 min of ischemic insult. This was followed by a time-dependent decrease in p38 phosphorylation from 30 min, which returned to basal levels by 90 min. […] As a consequence, active STEP limits the duration of activation of p38 MAPK. Progressive down regulation of active STEP through degradation is evident from ˜6 hours after reperfusion resulting in secondary activation of p38 MAPK. […]

| Molecule | neuronal cell death as assessed by Hoechst DNA staining (cultured neurons [1]) | glutamate-induced excitotoxic cell death in vivo (striatum) | OGD-induced cell death (Hoechst DNA staining) (cultured neurons [2]) | protection against ischemic brain injury (infarct volume, TTC staining) (male Wistar rats; 1.5 hr after onset of stroke (MCAO 90 min)) | protection against ischemic brain injury (infarct volume, TTC staining) (male Wistar rats; immediately before MCAO 90 min) |
| --- | --- | --- | --- | --- | --- |
| B1 | blocked neuronal cell death | could attenuate glutamate-induced excitotoxic cell death in vivo | significant reduction in OGD-induced cell death | – | – |
| B2 | – | – | – | significant protection against ischemic brain injury | significant protection against ischemic brain injury |
